According to publication PMC9345960, “ERK1/2 inhibits Cullin 3/SPOP-mediated PrLZ ubiquitination and degradation to modulate prostate cancer progression” (Cell Death and Differentiation, 2022):

Biological target: T1, HA-SPOP, wild type (UniProt O43791 1-374)
T1 construct: SPOP (Speckle-type POZ protein); also called HA-SPOP WT; pcDNA3-HA-SPOP; source: 293T, transfected, in lysate; also purified from transfected 293T cells using HA-tag beads
Assay: pull-down; GST pull-down: purified GST-PrLZ and HA-SPOP or His-SPOP incubated 3 h at 4 °C, washed with RIPA buffer, western blot (Fig. 2c: antibody against His)
Conditions: both partners purified

T1 sequence (O43791 whole entry): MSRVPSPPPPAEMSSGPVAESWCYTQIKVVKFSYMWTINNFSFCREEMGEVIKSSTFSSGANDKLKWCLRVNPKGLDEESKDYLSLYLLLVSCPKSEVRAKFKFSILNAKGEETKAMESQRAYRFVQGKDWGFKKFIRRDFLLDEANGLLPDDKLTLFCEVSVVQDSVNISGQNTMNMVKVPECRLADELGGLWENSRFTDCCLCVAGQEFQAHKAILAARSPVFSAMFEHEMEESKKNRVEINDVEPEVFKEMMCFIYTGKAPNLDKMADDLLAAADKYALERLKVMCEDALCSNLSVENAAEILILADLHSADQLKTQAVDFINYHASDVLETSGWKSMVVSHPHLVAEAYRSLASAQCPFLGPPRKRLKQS

binding result: binds
B1: GST-PrLZ, wild type (bacterial) (natural protein, UniProt P55327 1-224, looked up)
chain: MDCREMDLYEDYQSPFDFDAGVNKSYLYLSPSGNSSPPGSPTLQKFGLLRTDPVPEEGEDVAATISATETLSEEEQEELRRELAKVEEEIQTLSQVLAAKEKHLAEIKRKLGINSLQELKQNIAKGWQDVTATSAYKKTSETLSQAGQKASAAFSSVGSVITKKLEDVKNSPTFKSFEEKVENLKSKVGGTKPAGGDFGEVLNSAANASATTTEPLPEKTQESL
notes: Prostate Leucine Zipper (PrLZ); also called GST-PrLZ WT; pGEX-4T-1-GST-PrLZ; source: E. coli BL21, purified (Glutathione Sepharose 4B)
